Measured values as given in patent publication US20190310251A1.

Columns and labels:
CD20 = CD20 (UniProt P11836); assay: cell-based or functional assay
[1] = target: membrane-bound non-cleavable TNFα (human) (UniProt P01375); assay: cell-based or functional assay
Sequence of UniProt P01375 (P01375 whole entry A76L/V77L): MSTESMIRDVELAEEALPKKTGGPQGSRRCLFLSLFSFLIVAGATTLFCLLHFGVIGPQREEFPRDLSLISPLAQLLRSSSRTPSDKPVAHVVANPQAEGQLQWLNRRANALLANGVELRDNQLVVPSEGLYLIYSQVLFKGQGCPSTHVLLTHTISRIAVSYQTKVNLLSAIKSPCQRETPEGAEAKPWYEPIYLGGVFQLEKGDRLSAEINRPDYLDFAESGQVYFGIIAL

Sequence of UniProt P11836 (P11836 whole entry): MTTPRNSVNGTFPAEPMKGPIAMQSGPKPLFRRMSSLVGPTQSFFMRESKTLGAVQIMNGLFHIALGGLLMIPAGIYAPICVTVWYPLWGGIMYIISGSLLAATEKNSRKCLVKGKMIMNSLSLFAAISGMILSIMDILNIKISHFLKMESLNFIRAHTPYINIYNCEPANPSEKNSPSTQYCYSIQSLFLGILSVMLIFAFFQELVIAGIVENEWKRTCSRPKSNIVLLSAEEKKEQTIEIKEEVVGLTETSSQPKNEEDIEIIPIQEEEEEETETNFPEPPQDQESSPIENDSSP

rituximab (antibody)
EC50 of the ADCC reporter gene assay (NFAT effector cells & wild type Raji cells, no human serum) (CD20): 1.2 µg/mL
EC50 of the ADCC reporter gene assay (iLite effector cells & CD20++ target cells, no human serum) (CD20): 2 ng/mL

etanercept (Fc fusion)
ADCC Reporter Gene Assay, Serum Sample/Control; Hum. Serum + Etanercept [1]: 2.77
ADCC Reporter Gene Assay, Serum Sample/Control; No Hum. Serum + Etanercept [1]: 2.66
ADCC Reporter Gene Assay, Target Positive Cells (RLU); Hum. Serum + Etanercept [1]: 23700 RLU
ADCC Reporter Gene Assay, Target Positive Cells (RLU); No Hum. Serum + Etanercept [1]: 22800 RLU
ADCC Reporter Gene Assay, Target+/Target-; Hum. Serum + Etanercept [1]: 13.1
ADCC Reporter Gene Assay, Target+/Target-; No Hum. Serum + Etanercept [1]: 14.1

adalimumab (antibody)
ADCC Reporter Gene Assay, Serum Sample/Control; Hum. Serum + adalimumab [1]: 2.39
ADCC Reporter Gene Assay, Serum Sample/Control; No Hum. Serum + adalimumab [1]: 2.65
ADCC Reporter Gene Assay, Target Positive Cells (RLU); Hum. Serum + adalimumab [1]: 27000 RLU
ADCC Reporter Gene Assay, Target Positive Cells (RLU); No Hum. Serum + adalimumab [1]: 30000 RLU
ADCC Reporter Gene Assay, Target+/Target-; Hum. Serum + adalimumab [1]: 12.3
ADCC Reporter Gene Assay, Target+/Target-; No Hum. Serum + adalimumab [1]: 17.6
